The target in experiment [1] is SARS-COV-2 RBD extracellular domain expressed with a C-terminal myc-myc-hexahistidine tag (SARS-COV-2 RBD-mmH) (SARS-CoV-2). Description: SPR Biacore, mAb captured on anti-hFc, RBD-mmH analyte, 37 C. In general terms: In SPR one partner is held on a chip, and binding of the other changes the refractive index at the surface.
The target in experiment [2] is SARS-COV-2 RBD extracellular domain expressed with a C-terminal myc-myc-hexahistidine tag (SARS-CoV-2). Description: SPR (Biacore), mAb captured by anti-human Fc, RBD-mmH in solution, 25 C.

Residue numbers refer to the chain shown, from its start.

B1: mAb15160 (antibody, V domains shown)
VH: EVQLVESGGGLVQPGGSLRLSCSASGFTFSRYAMYWVRQAPGKGLEYVSAISSDGGSTYDADSVKGRFTISRANSKNTLYLQMSSLRAEDTAVYYCVKGLRELLYYYYGMDVWGQGTTVTVSS
VL: DIQMTQSPSSLSASVGDRVTITCRAGQSISSFLNWYQQKPGKAPKLLIYAASSLQSGVPSRFSGSGSGTDFTLTISSLQPEDFATYYCQQSYITPFTFGPGTKVDIKR
As to B1, in experiment [1], binding was characterised by a dissociation constant (Kd) of 7.79 nM; the koff (as a rule, a measure of how fast the partners let go of each other) was 0.00194 s⁻¹; the on-rate (kon) (in general, a measure of how fast the partners come together) came out at 250000 M⁻¹ s⁻¹; the t½ (as a rule, the time in which the quantity being followed falls by half) is 5.9 min.

B2: mAb15157 (antibody, V domains shown)
VH: EVQLVESGGALVQPGGSLRLSCAASGFPFTIYAMTWVRQAPGKGLEWVSVITGSGDSTYYADSVKGRFTISRDNSKNTLYLQMNSLRAEDTAVYYCVKTGEGFFYYYYGMDVWGQGTTVTVSS
VL: QSVLTQPPSVSAAPGQKVTISCSGSSSNIGNSYISWYQQLPGTAPKLLIYVNNKRPSGIPDRFSGSKSGTSATLGITGLQTGDEADYYCGTWDSSLSAGVFGSGTKVTVLG
B2: in experiment [1], the Kd (as a rule, the equilibrium constant for the complex coming apart) is 11.6 nM; the koff came out at 0.00399 s⁻¹; the kon is 344000 M⁻¹ s⁻¹; the t½ is 2.9 min.

B3: mAb15150 (antibody, V domains shown)
VH: EVQLVETGGGLIQPGGSLRLSCAAPGFIVSSNYMSWVRQAPGKGLEWVSLLYPGGSTYYADSVKGRFTISRDNSKNTLYLQMNSLRADDTAVYYCARVLPIVEDHFDYWGQGTLVTVSS
VL: DIQLTQSPSFLSASVGDRVTITCRASQGMSSYLAWYQKKPGKAPKLLIYGATILQSGVPSRFSGSGSGTEFTLTISSLQPEDFATYYCQQLNSDPLYMYTFGQGTKLEIKR
In experiment [1], B3 displayed a Kd of 0.158 nM, a koff of 7.84e-05 s⁻¹, a kon of 493000 M⁻¹ s⁻¹ and a t½ of 147 min.

B4: mAb15164 (antibody, V domains shown)
VH: EVQLVESGGGLVQPGGSLRLSCAASGFAVSSNYMTWVRQAPGKGLEWVATIYSGDSTYYADSVKGRFTISRHNSKNTLSLQMNSLRADDTAIYYCARLSGVLSGTYNGAFDIWGQGTMVTVSS
VL: QSALTQPASVSGSPGQSITISCTGTSSDFGNYNIVSWYQQHPGQAPKVMIYEGNKRPSGVSNRFSGSKSGHTASLTISGLQAEDEADYYCSSYAGSSTWVFGGGTKLTVLG
For B4, in experiment [1], the Kd amounted to 6.33 nM, the koff amounted to 0.00179 s⁻¹, the kon amounted to 283000 M⁻¹ s⁻¹ and the t½ is 6.5 min.

B5: mAb15166 (antibody, V domains shown)
VH: EVQLVESGGGLVQPGGSLRLSCAASGFTVTSNYMSWVRQAPGKGLEWVSAIYSGESTYYADSVKGRFTISRDSSKNTLYLQMNSLRVEDTAVYYCASIHDYSNYVGGFDPWGQGTLVTVSS
VL: B4 VL with T25P, N31S, I34L, Q44K, V48L, N54T, H71N
In experiment [1], B5 had a dissociation constant (Kd) of 95.3 nM, a koff of 0.0334 s⁻¹, a kon of 350000 M⁻¹ s⁻¹ and a t½ of 0.3 min.

B6: mAb15165 (antibody, V domains shown)
VH: EVQLVESGGGLVQPGGSLRLSCAASGFTVSSNYMSWVRQAPGKGLEWVSAIYSGDSTYYADSVKGRFTISKDNSKNTLYLQMNSLRGEDTAVYYCARLGGALQAYDGAFDYWGQGTLATVSS
VL: B4 VL with N31S, I34L, Q44K, V48L, N62I, H71N
Consider B6, for which, in experiment [1], binding was characterised by a dissociation constant (Kd) of 3.1 nM, the off-rate constant (koff) worked out at 0.00147 s⁻¹, the kon worked out at 475000 M⁻¹ s⁻¹ and the t½ turned out to be 7.9 min.

B7: mAb15158 (antibody, V domains shown)
VH: EVQLVESGGGLVQPGGSLRLSCAASGFSFSSNWMSWVRQAPGKGLEWVGNINQDGSEKYYVDSVEGRFTISRDNAKKSLYLQMNSLRAEDTAVYYCARDLGVLWFGDFVDWGQGALVTVSS
VL: DIQMTQSPSSLSASVGDRVTITCRASQAISNSLAWYQQKPGKAPKLLLYAASTLESGVPSRFSGSGSGTDYTLTISSLQPEDFATYYCLQYYGSPRTFGQGTKVEIKR
In experiment [1], B7 showed a Kd of 1.65 nM, a koff of 0.000207 s⁻¹, a kon of 126000 M⁻¹ s⁻¹ and a t½ of 55.7 min.

B8: mAb14286 (antibody, V domains shown)
VH: QVQLVQSGAEVKKPGASVKVSCKASGYTFTDYFIHWVRQAPGQGLEWMGWINPTSGGTNYAQKFRGRVTMTRDTSISTAYVELSRLRSDDTALYYCARDLPFYSDTKQFDYWGQGTLVTVSS
VL: QSALTQPASVSGYPGQSITISCTGTSSDVGGYNYVSWYQQHPGKAPKLMIFDVSNRPSGVSNRFSGSKSGNTASLTFSGLQAEDEADYYCSSYTSSSTLVFGGGTKLTVLG
Turning to B8, in experiment [2], binding was put at a Kd of 3.22 nM, the koff was determined as 0.0104 s⁻¹, the kon amounted to 3.23e+06 M⁻¹ s⁻¹ and the t½ was 1.1 min.

B9: mAb15159 (antibody, V domains shown)
VH: EVQLVESGGGLVQPGGSLRLSCAASGITVSSNYMTWVRQAPGKGLEWVSLIYSGGSTFYADSVRGRFTISRDNSKNTLYLQMNSLRAEDTAVYYCARDLVVYGMDVWGQGTTVTVSS
VL: DIQLTQSPSSLSASVGDRVTITCRASQGISSYLAWYQQKPGKAPKLLIYAASTLQSGVPSRFSGSGSGTDFTLTISSLQPEDFATYYCQHLNSDPHTFGQGTKLEIKR
B9: in experiment [1], the Kd stood at 1.21 nM, the koff worked out at 0.000176 s⁻¹, the kon is 146000 M⁻¹ s⁻¹ and the t½ stood at 65.6 min.

B10: mAb15170 (antibody, V domains shown)
VH: B9 VH with S25T, T35S, R64K, D72H, N83S, V101D, Y102F
VL: B9 VL with S31N, A84G, H90Q, P95S, H96P, L104V
As to B10, in experiment [1], binding was characterised by a dissociation constant (Kd) of 0.297 nM, the off-rate (koff) was found to be 8.36e-05 s⁻¹, the kon came to 283000 M⁻¹ s⁻¹ and the t½ was determined as 138 min.

B11: mAb14281 (antibody, V domains shown)
VH: QVQLVQSGADVKKPGASVKVSCKTSGYIFTGYYIHWVRQAPGQGLEWMGWINPNSGGTNSAQKFQGRVTMTRDTSISTVYMELSRLRSDDTAVYYCAKSNSFSVLDYNFDYWGQGTLVTVSS
VL: SSELTQDPAVSVALGQTVRITCQGDSLRSYYASWYQQKPGQAPVLVIYDKNNRPSGIPDRFSGSSSGNTASLTITGAQAEDEADYYCNSRDSSRNHLVVFGGGTKLTVLG
In experiment [2], B11 yielded a Kd of 5.02 nM, a koff of 0.00554 s⁻¹, a kon of 1.1e+06 M⁻¹ s⁻¹ and a t½ of 2.1 min.

B12: mAb15162 (antibody, V domains shown)
VH: EVQLVETGGGLIQPGGSLRLSCAASEFIVSRNYMSWVRQAPGKGLEWVSLIYSGGSTYYADSVKGRFTISRDNSKNILYLQMNSLRAEDTAVYYCARDRGGISDYWGQGTLVTVSS
VL: DIQMTQSPSSLSASVGDRVTITCQASQDINKYLNWFQQKPGKAPKLLIYDASNLETGVPSRFSGSGSGTDFTFTISSLQPEDIATYYCQQYDNLPRTFGQGTKLEIKR
In the case of B12, in experiment [1], the Kd is 29.2 nM, the dissociation rate constant (koff) worked out at 0.00299 s⁻¹, the kon was 103000 M⁻¹ s⁻¹ and the t½ was found to be 3.9 min.

B13: mAb14230 (antibody, V domains shown)
VH: EVQLVESGGGLIQPGRSLRLSCAASGFTFDDYAMHWVRQAPGKGLEWVSGISWNSVSIDYADSVKGRFTISRDNAKNSLYLQMTSLTVEDTALYYCAKAFGYETLTGSDYFAYWGPGTLVTVSS
VL: EIVLTQSPGTLSLSPGERATLSCRASQTVISTYLAWYQQKPGQSPRLLIYGASSRATGIPDRFSGSGSGTDFTLTISRLEPEDFAVYYCQQYGSSPQLTFGGGTKVEIKR
As to B13, in experiment [2], binding was characterised by a dissociation constant (Kd) of 7.51 nM, the koff was found to be 0.00852 s⁻¹, the on-rate constant (kon) was found to be 1.13e+06 M⁻¹ s⁻¹ and the t½ is 1.4 min.

B14: mAb14282 (antibody, V domains shown)
VH: QVQLVQSGAEVKKPGASVKVSCKASGYIFTDHYMHWVRQAPGQGLEWMGWINPNSGATNYAQNFQGRVTMTRDTSIITVYMELSRLRSDDTAVYYCARDSSPYMIRYTMDVWGQGTTITVSS
VL: QSALTQPASVSGSPGQSITISCTGTSSDVGSYNLVSWYQQHPGKAPKLMIYELTKRPSGVSNRFSGSKSGNTASLTISGLQAEDEADYYCSSYRGSVTDVVFGGGTKLTVLG
As to B14, in experiment [2], the dissociation constant Kd is 4.97 nM, the koff was 0.00957 s⁻¹, the kon was 1.93e+06 M⁻¹ s⁻¹ and the t½ was found to be 1.2 min.

B15: mAb15151 (antibody, V domains shown)
VH: QVQLVESGGGVVQPGRSLRLSCAASGFVFNSYGMHWVRQAPGKGLEWVAVLWYEGSKNYYADSVKGRFTISRDNSKNTLYLQMNSLRAEDTAVYYCARHGSGSFFGYYLDYWGQGTLVTVSS
VL: DIQMTQSPSSLSASVGDRVTITCRASHNINDFLNWYQQKPGKAPRLLIYAASSLQSGVPSRFSGSGSGTDFTLTISSLQPEDFATYYCQESYTTPPTFGQGTKLEIKR
In experiment [1], B15 showed a Kd of 24.6 nM, a koff of 0.00442 s⁻¹, a kon of 180000 M⁻¹ s⁻¹ and a t½ of 2.6 min.

B16: mAb15163 (antibody, V domains shown)
VH: EVQLVETGGGLIQPGESLRLSCAASGFIVSTNYMNWVRQAPGKGLEWVSVIYRGGSTYYADSVKGRFTISRDNSKNTLFLQMNSLRAEDTAVYYCARGHEDFDYDTPASGAFDIWGQGTMVTVSS
VL: QSALTQPPSASGSPGQSVTISCTGTSSDVGGHNYVSWYQQHPGKAPKVMIYEVSKRPSGVPDRFSGSKSGNTASLTVSGLQAEDEADYYCSSYAGSNKFVFGTGTKVTVLG
In experiment [1], B16 displayed a Kd of 1.78 nM, a koff of 0.000387 s⁻¹, a kon of 218000 M⁻¹ s⁻¹ and a t½ of 29.9 min.

B17: mAb15161 (antibody, V domains shown)
VH: EVQLVESGGGLVQPGGSLRLSCAASGFTFSSYEMNWVRQAPGKGLEWVSYISSSGSILYYADSVKGRFTASRDNAKNSLYLQMNSLRAEDTGVYYCARREYQLLRPFEFWGQGTLVTVSS
VL: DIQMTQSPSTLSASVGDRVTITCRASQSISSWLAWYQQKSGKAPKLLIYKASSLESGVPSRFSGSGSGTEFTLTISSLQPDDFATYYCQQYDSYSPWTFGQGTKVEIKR
For B17, in experiment [1], the Kd was 3.29 nM, the koff was determined as 0.000866 s⁻¹, the kon came out at 263000 M⁻¹ s⁻¹ and the t½ stood at 13.3 min.

Source of the values: patent US20260069689A1 (Regeneron, published 2026).
